In EP4177273A1:

Legend:
[1] = biological target: human Claudin 18 splice variant 2 (CLDN18.2) (human); test: FACS with FITC-labeled IMAB362 on CAPAN1-LVT cells 2 days after transduction with human CLDN18.2
[2] = biological target: human Claudin 18 splice variant 2 (CLDN18.2) (human); test: FACS with FITC-labeled IMAB362 on MiaPaCa-2-LVT cells 2 days after transduction with human CLDN18.2
[3] = biological target: human Claudin 18 splice variant 2 (CLDN18.2) (human); test: FACS with FITC-labeled IMAB362 on Suit2-LVT cells 2 days after transduction with human CLDN18.2
[4] = biological target: human Claudin 18 splice variant 2 (CLDN18.2) (human); test: FACS, 2E5 Patu8988S cells/100 µl stained with 50 µg/ml IMAB362
[5] = biological target: human Claudin 18 splice variant 2 (CLDN18.2) (human); test: FACS with FITC-labeled IMAB362 on Patu8902-LVT cells 2 days after transduction with human CLDN18.2
[6] = biological target: human Claudin 18 splice variant 2 (CLDN18.2) (human); test: FACS with FITC-labeled IMAB362 on YAPC-LVT cells 2 days after transduction with human CLDN18.2
[7] = biological target: human Claudin 18 splice variant 2 (CLDN18.2) (human); test: FACS with FITC-labeled IMAB362 on HPAC-LVT cells 2 days after transduction with human CLDN18.2
[8] = biological target: human Claudin 18 splice variant 2 (CLDN18.2) (human); test: FACS, 2E5 Panc05.04 cells/100 µl stained with 50 µg/ml IMAB362
[9] = biological target: human Claudin 18 splice variant 2 (CLDN18.2) (human); test: FACS with FITC-labeled IMAB362 on DANG-LVT cells 2 days after transduction with human CLDN18.2
[10] = biological target: human Claudin 18 splice variant 2 (CLDN18.2) (human); test: FACS with FITC-labeled IMAB362 on BxPC3-LVT cells 2 days after transduction with human CLDN18.2
[11] = biological target: human Claudin 18 splice variant 2 (CLDN18.2) (human); test: cell-based or functional assay

**Q.** With IMAB362 (antibody) as the substance, how does the Transduction efficiency (% cells positive) [1] read?
**A.** 89.6%

**Q.** And the Transduction efficiency (% cells positive) [2]?
**A.** 96.3%

**Q.** And the Transduction efficiency (% cells positive) [3]?
**A.** 92.2%

**Q.** And the CLDN18 surface expression (FACS), % positive cells [4]?
**A.** 81.7%

**Q.** And the Transduction efficiency (% cells positive) [5]?
**A.** 93%

**Q.** What about the Transduction efficiency (% cells positive) [6] of the same substance?
**A.** 82.2%

**Q.** And the Transduction efficiency (% cells positive) [7]?
**A.** 97.3%

**Q.** And the CLDN18 surface expression (FACS), % positive cells [8]?
**A.** 15%

**Q.** What about the Transduction efficiency (% cells positive) [9] of the same substance?
**A.** 87.5%

**Q.** And the Transduction efficiency (% cells positive) [10]?
**A.** 92.8%

**Q.** And the ADCC EC50 (ng/ml), BxPC3 LVT cells, human PBMC E:T 40:1 [11]?
**A.** 47.7 ng/mL

**Q.** And the ADCC EC50 (ng/ml), CAPAN1-LVT cells, human PBMC E:T 40:1 [11]?
**A.** 65 ng/mL

**Q.** What about the ADCC EC50 (ng/ml), DANG cells (endogenous CLDN18.2), human PBMC E:T 40:1 [11] of the same substance?
**A.** 4980 ng/mL

**Q.** What about the ADCC EC50 (ng/ml), DANG-LVT cells, human PBMC E:T 40:1 [11] of the same substance?
**A.** 52.3 ng/mL

**Q.** And the ADCC EC50 (ng/ml), HPAC-LVT cells, human PBMC E:T 40:1 [11]?
**A.** 117 ng/mL

**Q.** What about the ADCC EC50 (ng/ml), MiaPaCa2-LVT cells, human PBMC E:T 40:1 [11] of the same substance?
**A.** 23.4 ng/mL

**Q.** And the ADCC EC50 (ng/ml), Panc05.04 cells (endogenous CLDN18.2), human PBMC E:T 40:1 [11]?
**A.** 5730 ng/mL

**Q.** And the ADCC EC50 (ng/ml), Patu8902-LVT cells, human PBMC E:T 40:1 [11]?
**A.** 49.2 ng/mL

**Q.** What about the ADCC EC50 (ng/ml), Patu8988S cells (endogenous CLDN18.2), human PBMC E:T 40:1 [11] of the same substance?
**A.** 175 ng/mL

**Q.** And the ADCC EC50 (ng/ml), Suit2-LVT cells, human PBMC E:T 40:1 [11]?
**A.** 73.2 ng/mL

**Q.** What about the ADCC EC50 (ng/ml), YAPC-LVT cells, human PBMC E:T 40:1 [11] of the same substance?
**A.** 29.5 ng/mL

**Q.** What about the ADCC EC50, DANG/Panc05.04 cells, PBMCs of different donors [11] of the same substance?
**A.** 0.1 to 38 µg/mL

**Q.** And the ADCC EC50, Patu8988S cells, PBMCs of different donors [11]?
**A.** 0.01 to 1.4 µg/mL

**Q.** And the ADCC Max. lysis (%), BxPC3 LVT cells, human PBMC E:T 40:1 [11]?
**A.** 90.6%

**Q.** What about the ADCC Max. lysis (%), CAPAN1-LVT cells, human PBMC E:T 40:1 [11] of the same substance?
**A.** 92.6%

**Q.** What about the ADCC Max. lysis (%), DANG cells (endogenous CLDN18.2), human PBMC E:T 40:1 [11] of the same substance?
**A.** 52.5%

**Q.** What about the ADCC Max. lysis (%), DANG-LVT cells, human PBMC E:T 40:1 [11] of the same substance?
**A.** 85.9%

**Q.** What about the ADCC Max. lysis (%), HPAC-LVT cells, human PBMC E:T 40:1 [11] of the same substance?
**A.** 76.2%

**Q.** And the ADCC Max. lysis (%), MiaPaCa2-LVT cells, human PBMC E:T 40:1 [11]?
**A.** 78.1%

**Q.** And the ADCC Max. lysis (%), Panc05.04 cells (endogenous CLDN18.2), human PBMC E:T 40:1 [11]?
**A.** 67.1%

**Q.** What about the ADCC Max. lysis (%), Patu8902-LVT cells, human PBMC E:T 40:1 [11] of the same substance?
**A.** 74.1%

**Q.** What about the ADCC Max. lysis (%), Patu8988S cells (endogenous CLDN18.2), human PBMC E:T 40:1 [11] of the same substance?
**A.** 70.1%

**Q.** And the ADCC Max. lysis (%), Suit2-LVT cells, human PBMC E:T 40:1 [11]?
**A.** 81.2%

**Q.** What about the ADCC Max. lysis (%), YAPC-LVT cells, human PBMC E:T 40:1 [11] of the same substance?
**A.** 91.5%

**Q.** And the CDC EC50 (ng/ml), CAPAN1-LVT cells, human serum pool [11]?
**A.** 970 ng/mL

**Q.** What about the CDC EC50 (ng/ml), MiaPaCa2-LVT cells, human serum pool [11] of the same substance?
**A.** 340 ng/mL

**Q.** What about the CDC EC50 (ng/ml), Patu8902-LVT cells, human serum pool [11] of the same substance?
**A.** 291 ng/mL

**Q.** And the CDC EC50, MiaPaCa-2-LVT cells pretreated with gemcitabine [11]?
**A.** 4.68 µg/mL

**Q.** What about the CDC EC50, MiaPaCa-2-LVT, Suit2-LVT and CAPAN1-LVT cells, human serum [11] of the same substance?
**A.** 0.3 to 2.6 µg/mL

**Q.** And the CDC EC50, medium cultivated MiaPaCa-2-LVT cells [11]?
**A.** 7.67 µg/mL

**Q.** And the CDC Max. lysis (%), CAPAN1-LVT cells, human serum pool [11]?
**A.** 79.1%

**Q.** What about the CDC Max. lysis (%), MiaPaCa2-LVT cells, human serum pool [11] of the same substance?
**A.** 78.4%

**Q.** And the CDC Max. lysis (%), Patu8902-LVT cells, human serum pool [11]?
**A.** 76.7%
